Reference: paper PMC3593993

Biological target: constitutively active Go2α (Go2αQ205L), Gal4 DNA-binding domain fusion (pGBKT7-Go2αQ205L) (UniProt P18872)
Experiment: two-hybrid

Girdin prey of the mating and α-galactosidase experiments (pACT2-Girdin) (from UniProt Q5SNZ0 1318-1873) (domain or fragment)
fold of the interaction (α-galactosidase activity) against Go1αQ205L: 2.5 fold
